Experiment: soluble on expression in E. coli; label from the status in PepcDB or PDB records

Sequence | soluble on expression in E. coli
MGSYSSDDVEVIREAGRAQGLATILAIGTATPPNCVAQADYADYYFRVTKSEHMVDLKEKFKRICEKTAIKKRYLALTEDYLQENPTMCEFMAPSLNARQDLVVTGVPMLGKEAAVKAIDEWGLPKSKITHLIFCTTAGVDMPGADYQLVKLLGLSPSVKRYMLYQQGCAAGGTVLRLAKDLAENNKGSRVLIVCSEITAILFHGPNENHLDSLVAQALFGDGAAALIVGSGPHLAVERPIFEIVSTDQTILPDTEKAMKLHLREGGLTFQLHRDVPLMVAKNIENAAEKALSPLGITDWNSVFWMVHPGGRAILDQVERKLNLKEDKLRASRHVLSEYGNLISACVLFIIDEVRKRSMAEGKSTTGEGLDCGVLFGFGPGMTVETVVLRSVRVTAAVANGN | soluble
MGSDKIHHHHHHMNTIGERLKYLRKLNNLTQKQVAEKTGVQRGNISHYEKNDFLPSRVALISFANFFKTNYDWIVYGKGAIPKSIDEVMYAKSNSIAECNNGAAVDFSKRLIFTMKYFHETIDGLCLKLNISKDIFHEILIKKNVSAFDLFKICNYFNVSMDWMFNGNITYLKSDAKLQQAYLMNSKGNKPLSYDNHGMVQCTCEEKKLLIFFENLNTKDKSLVIDILNSVNNQASMDIQKLIK | not soluble
MSQPESPEQRRTAILATAERILRSGSPLTLGKVAQEVGISRTALYRYVSGIDEIIETLATKDFPHWLTSLRSAMAAAPTPKQRALCWAIESIKLGRETDHAWLATLSSLNLSENCRNAIASEHSKIDQLLRVELAQLGTPHIELTVATVRAVVMTAIQTPSSTEADDYFTATISAIIDASC | not soluble
MLVFISNSRLSESEVQKLRDKHLIDDFIQRENKGYDFAAWHDGMEFVGFENLKQYDSVTVMNDTCFGPLWDMAPIYDNYESNPNVDFWGMTNHQGIKAGDIYIHEHLQSYFISFKKRLVESSVFQKFWKSVESFEDVQKVIDNYETLYTKKFRDAGFNYESILNTIPLNDKFFHSNFTIHYPHVLLDTGVPFIKVKTFDLTQHLAPYLLKEIEKRTDYPVELILSHMSDMSLPTPPYLLDRKVIEKSSQTYSDTKKIAVHLHTYYVDLLEDFLKQFENFHFTYDLFLTTDSEDKKAEIQSILDKNGKVARIFITGNRGRDVIPMLKLKDELSAYDYIGHFHTKKSPEYPYWVGDSWRNELFSMLIQPADNIIANLERDDRLGLVIADIPSFFRYTKIVDPWNENRFAEGMNDLWERMDLGRDIDFDKMNTFIMSYGTFIWFKYDALKPLFDLDLQDEEIPAEPIPQHTILHSIERILVYLAWARRYDYAIAKNDIYITPFVDNVVLNIRPDTLPNTYINFDNIGGIKGALKYIIVGPLEHHHHHH | not soluble
MSLVQSAVLGFPRIGPNRELKKATEGYWNGKITVDELFKVGKDLRTQNWKLQKEAGVDIIPSNDFSFYDQVLDLSLLFNVIPDRYTKYDLSPIDTLFAMGRGLQRKATETEKAVDVTALEMVKWFDSNYHYVRPTFSKTTQFKLNGQKPVDEFLEAKELGIHTRPVLLGPVSYLFLGKADKDSLDLEPLSLLEQLLPLYTEILSKLASAGATEVQIDEPVLVLDLPANAQAAIKKAYTYFGEQSNLPKITLATYFGTVVPNLDAIKGLPVAALHVDFVRAPEQFDEVVAAIGNKQTLSVGIVDGRNIWKNDFKKSSAIVNKAIEKLGADRVVVATSSSLLHTPVDLNNETKLDAEIKGFFSFATQKLDEVVVITKNVSGQDVAAALEANAKSVESRGKSKFIHDAAVKRRVASIDEKMSTRAAPFEQRLPEQQKVFNLPLFPTTTIGSFPQTKDIRINRNKFNKGTISAEEYEKFINSEIEKVIRFQEEIGLDVLVHGEPERNDMVQYFGEQINGYAFTVNGWVQSYGSRYVRPPIIVGDLSRPKAMSVKESVYAQSITSKPVKGMLTGPITCLRWSFPRDDVDQKTQAMQLALALRDEVNDLEAAGIKVIQVDEPALREGLPLREGTERSAYYTWAAEAFRVATSGVANKTQIHSHFCYSDLDPNHIKALDADVVSIEFSKKDDANYIAEFKNYPNHIGLGLFDIHSPRIPSKDEFIAKISTILKSYPAEKFWVNPDCGLKTRGWEETRLSLTHMVEAAKYFREQYKNEGHHHHHH | soluble
MAHHHHHHMGAPLREDPYNIKTPISDGTTIIGIIYEHGVMLACDTRTSSGTLVSNKCSRKINRINENIYACRSGASAHSQKVIELIKHFCLSMKCENRKKGRFHEDEVITDDLANEEDIDLSAINNPFGLAQNMDPNYVTKHKYFYEDKFMDFNPLVENVAHMTKKLLYANNHFLSCGLILGGYDKEKKQQLYSVNLNGSIVQRFDYAVSGSGSVYIQSYLQDKYKKNMSKKECFELILGCVKYAMYNDNSSGGIVRIVNMTKLFVEEFTVTNTQLHFDY | soluble
MSEGWNIAVLGATGAVGEALLETLAERQFPVGEIYALARNESAGEQLRFGGKTITVQDAAEFDWTQAQLAFFVAGKEATAAWVEEATNSGCLVIDSSGLFALEPDVPLVVPEVNPFVLTDYRNRNVIAVPDSLTSQLLAALKPLIDQGGLSRISVTSLISASAQGKKAVDALAGQSAKLLNGIPIDEEDFFGRQLAFNMLPLLPDSEGSVREERRIVDEVRKILQDEGLMISASVVQAPVFYGHAQMVNFEALRPLAAEEARDAFVQGEDIVLSEENEFPTQVGDASGTPHLSVGCVRNDYGMPEQVQFWSVADNVRFGGALMAVKIAEKLVQEYLY | soluble
MSSTPSLSHSPAELYRAWQDLRAERPQLRARDAAALLQVSEGELVASRVGIDAVRLRPDWAALLPALGELGPIMALTRNEHCVHERKGPYREVTVSANGQMGLVVSPDIDLRLFLGGWNAVFAIAEETARGTQRSIQVFDQQGVAVHKVFLAEASDVRAWEPLVERLRAAEQDAVLALHEPRAPAAALVDAQIDAAALREGWAALKDTHHFHALLKKHGAQRTQALRLAGGEWAERLDNGDLAKLFEAAAESGLPIMVFVGNAHCIQIHTGPVCNLKWLDDWFNVLDPEFNLHLKTTGIAELWRVRKPSTDGIVTSWEAFDADGELIVQLFGARKPGEPERDDWRELAESFKAL | not soluble
MGSDKIHHHHHHMKQFSGLSRTIQGNHLLDTCAIDILKIGHRPLVLCAKQEYNTTVESFVKVLTCHGLIVKIVYMEEWDQNSVEECGEVGFRHRADHIIGIGNSSVAACTKAVADLLDLPAVLIPTSPFTTLPWVSVENKKRERPLFNESIQLIIADREQLLTQPTSELINGVVNTLLYLAAIKEVKRNHLFSLVDDILIRSFESVLLRGSLQAIEDFEARILSKEVQDVLEVLSTCVTLDLPSDAWDVIQQIESKLSERREDLVDEPLKRNVVLYLLLSYLTQESEEFQARLKWCQQLLLSANSSNLLSLEAVLKEIALEMGEDGSTRC | not soluble
MSLAMSKVKSITRESWILSTFPEWGSWLNEEIEQEQVAPGTFAMWWLGCTGIWLKSEGGTNVCVDFWCGTGKQSHGNPLMKQGHQMQRMAGVKKLQPNLRTTPFVLDPFAIRQIDAVLATHDHNDHIDVNVAAAVMQNCADDVPFIGPKTCVDLWIGWGVPKERCIVVKPGDVVKVKDIEIHALDAFDRTALITLPADQKAAGVLPDGMDDRAVNYLFKTPGGSLYHSGDSHYSNYYAKHGNEHQIDVALGSYGENPRGITDKMTSADMLRMGEALNAKVVIPFHHDIWSNFQADPQEIRVLWEMKKDRLKYGFKPFIWQVGGKFTWPLDKDNFEYHYPRGFDDCFTIEPDLPFKSFLEGGSHHHHHH | soluble
MRCPRCHHNNSRVIDSRQADDGRAIRRRRECENCSYRFTTFERIEAAPLLVIKKNGDREEFNRDKILRGLIRSAEKRPVAMEQMVQIVDNVENRVRSLGENEVSTTLIGEYVMEDLVNLDEIAYIRFASVYRQFKDMSVFLKELQDIVDKAKSSSPDSEN | not soluble
MREPYYKKLLGIKNYLIRKNYPEELEILIPKYVEENKELRGCIDCLSCLSVCPAREVSDYPGPTFMRQLARFAFDKRDEDGREITAYFENIYNCTTCAKCVEVCPKEIDIVHRAIEKLRALAFSKGYYIENHLEHHHHHH | not soluble
MAKAGGITNAVNVGIAVQADWENREFISHISLNVRRLFEFLVQFGKPHSLTYFSVLGFEFN | not soluble
AIAKNFNDEEHNSQLTDEVLPEPEDARVIANILKAVGVESFDTRVVAQLVEFVYKYIGEVLELSKTFAQYAEREDIRQDDVKLAISSLLSKSFTQPPSRDVLLQLCRERNAVPLPVVDTYVGIQLPPKEFQLTTRNYQLKRKTTTESVASQELSEATGNISIGESSLQPNEEESNTMNT | soluble
MSHKFSRRAFAVLTAAAISTSAFATTAPSAIAEPVSNVATADDSSVATSENSLDWGFKASWRTYVTGPWTGGTVDATGGATVNEDGTYNFTLGTGSNYDVDTEKGQLNYEGTVAFASDAHGFNITLSNPQITVEGDTATLSAELSDNAAPEETSTTRVDVAEFELTAPEVSETDADITYTWTDASGTFLETLQPEELSRYAGQEADALSFSITVDKASENPSDDVATGSSSSFLSTILNFLQQLASPLLKLFGSLSS | not soluble
MSLARSVVVSAEAVYSHEGEYVGDHVLVDEGLVKSISRGEPHVSVGKRVAVKGFLLPPLVDAHLHMRSLGASFRIVNLKGASSPEEVAKRLAAANSPIAVGRGWNEEEFRPGSRLDRRILDSYLGEKPALAVRICGHVAVANSAFIRESGVDKLFPNLVDRERGLLLEDAVSYAVSVAMKTYNNEELLRDAASALASVGVFGVSSMACSEEEVRALSLIGDALEVRVACYLRRGVEPPPKRAGARWSIVGVKLFADGSLGGRTAYLRRPYISGENEGWRGLKLLSSRDIAEEAVSNSHRGLATAVHAIGDAALDEVLEGFSNAISRGVEPGMLRVEHASLAWPNQIDRLASLRVWTVVQPLFRVSDWWLESRVGSDMLQAAYPFASMLRAGVKLALSTDAPVETYDPAETFKAAVGLCSSRLCRESESLTPRETLKLYTLNSALASGGPVAWLGRLRRGAPALFAVANVDVLNSGRKELEKLKFRGLNLAKEGHHHHHH | soluble
PQFGLFSKYRTPNCSQYRLPGCPRHFNPVCGSDMSTYANECTLCMKIREGGHNIKIIRNGPC | soluble
MKQLATPFQEYSQKYENIRLERDGGVLLVTVHTEGKSLVWTSTAHDELAYCFHDIACDRENKVVILTGTGPSFCNEIDFTSFNLGTPHDWDEIIFEGQRLLNNLLSIEVPVIAAVNGPVTNHPEIPVMSDIVLAAESATFQDGPHFPSGIVPGDGAHVVWPHVLGSNRGRYFLLTGQELDARTALDYGAVNEVLSEQELLPRAWELARGIAEKPLLARRYARKVLTRQLRRVMEADLSLGLAHEALAAIDLGMESEQ | soluble
MGSDKIHHHHHHMEIKKGTWIIKKGFAEMFKGGVIMDVTSAEQAKIAEEAGAVAVMALERVPADIRKEGGVARMASIAKIREIMEAVSIPVMAKVRIGHIAEAKILEELGVDFIDESEVLTPADDRFHINKHEFKVPFVCGARDLGEALRRIAEGAAMIRTKGEAGTGNVVEAVKHMRRVMEQIKQVTKMEDEELVAYGKEIGAPVELLREVKRLGRLPVVNFAAGGVATPADAALMMMLGADGVFVGSGIFKSKDPRKMAKAMVLAVTYWDNPRILLKISEDIGEPMRGLDVEELEVRMQERGW | not soluble
MGSDKIHHHHHHMVYPVRIDTIRYDRKFSFVVFVEDIQSSHQIIDNIMDIGDEIGYPYEVIVSAKDQVTDDYYSDEIKVVGTGLNRRSDGIQRSLKSSTGNYFVIFDPNIRYSLSYADLLYGYAETGSSEVLVSEILGFQTDVLRSVGGWRDLSYGEDIDLLVRVIDNYGVITYPFYGLKQIDLTELIKSTDSIRSGKIKKLRDLIISCNFKYQDIKTIAKILDKSSRISRLLYLSKILSNFARIRPYERPKNNYLTIMERIMESILAKEFLKITTVDFKPSLAISTKTAEYLAGESPLWRITEENGNFVREKI | not soluble

From the DeepSol protein solubility set
